Several values for one entry are separate records, joined by “and”; a condition that tells them apart may be missing. Equal entries are not always repeated. Where no end group is shown, it is not given here.

Consider 13 molecules from publication PMC9249791, “Molecular dissection of the glutamine synthetase-GlnR nitrogen regulatory circuitry in Gram-positive bacteria” (Nature Communications, 2022).

To fix the notation:
B1: Bacillus subtilis glutamine synthetase (enzyme, B. subtilis)
chain: MAKYTREDIEKLVKEENVKYIRLQFTDILGTIKNVEIPVSQLGKALDNKVMFDGSSIEGFVRIEESDMYLYPDLNTFVIFPWTAEKGKVARFICDIYNPDGTPFEGDPRNNLKRILKEMEDLGFSDFNLGPEPEFFLFKLDEKGEPTLELNDKGGYFDLAPTDLGENCRRDIVLELEEMGFEIEASHHEVAPGQHEIDFKYAGAVRSCDDIQTFKLVVKTIARKHGLHATFMPKPLFGVNGSGMHCNLSLFKNGVNAFFDENADLQLSETAKHFIAGIVKHATSFTAVTNPTVNSYKRLVPGYEAPCYVAWSAQNRSPLIRIPASRGISTRVEVRSVDPAANPYLALSVLLAAGLDGIKNKLEAPAPIDRNIYVMSKEERMENGIVDLPATLAEALEEFKSNEVMVKALGEHLFEHFIEAKEIEWDMFRTQVHPWEREQYMSQY
notes: glutamine synthetase (GS, class GSI-alpha) of B. subtilis; gene bought from Genscript, in pET15b; Dodecamer as apo protein; tetradecamer (14 copies) in the complexes with TnrA, GlnR and the GlnR C-tail peptide; The His-tag was removed only for crystallography; also called Bs GS; source: E. coli C41(DE3), purified (cobalt NTA); copies: 12

In data set [1] the target is Staphylococcus aureus glutamine synthetase (S. aureus). The data set is described as follows: cryo-EM structure; GS (0.75-1.0 mg/mL) with 2.5 or 5 mM GlnR C-tail peptide, 30 min at rt; Buffer B (12.5 mM Tris pH 7.5, 20 mM glutamine, 5 mM MgCl2, 150 mM NaCl, 2.5% glycerol, 1 mM BME).
For data set [2], the target named is fluoresceinated Sa GlnR C-tail peptide (S. aureus). The data set is described as follows: fluorescence polarisation; FBI-GS against the corresponding fluoresceinated GlnR C-tail; 25 mM Tris pH 7.5, 100 mM NaCl, 5 mM MgCl2, 20 mM glutamine; three technical repeats. A general note: In fluorescence polarisation assays a small probe gives low polarisation when free and higher when bound to something large.

In data set [3] the target is Staphylococcus aureus glutamine synthetase (S. aureus). Description: cryo-EM structure; apo GS without peptide, 0.9-1.0 mg/mL, exchanged into Buffer B.
The target in data set [4] is Paenibacillus polymyxa glutamine synthetase, His-tag removed (crystallography) (P. polymyxa). The data set is described as follows: crystal structure; GS reacted with 5 mM MgCl2, 5 mM ATP and 5 mM Met-Sox (Met-Sox-P-ADP transition state complex); hanging drop, rt.
Data set [5] has as its target Listeria monocytogenes glutamine synthetase, His-tag removed (crystallography) (L. monocytogenes). Described as above.
In data set [6] the target is Staphylococcus aureus glutamine synthetase, His-tag removed (crystallography) (S. aureus). The data set is described as above.
Data set [7] concerns the target Listeria monocytogenes glutamine synthetase (L. monocytogenes). Description: cryo-EM structure; GS (0.75-1.0 mg/mL) with 2.5 or 5 mM GlnR C-tail peptide, 30 min at rt; Buffer B (12.5 mM Tris pH 7.5, 20 mM glutamine, 5 mM MgCl2, 150 mM NaCl, 2.5% glycerol, 1 mM BME).
Data set [8] addresses fluoresceinated Lm GlnR C-tail peptide (L. monocytogenes). Description: fluorescence polarisation; FBI-GS against the corresponding fluoresceinated GlnR C-tail; 25 mM Tris pH 7.5, 100 mM NaCl, 5 mM MgCl2, 20 mM glutamine; three technical repeats.
For data set [9], the target named is Listeria monocytogenes glutamine synthetase (L. monocytogenes). The data set is described as follows: cryo-EM structure; apo GS without peptide, 0.9-1.0 mg/mL, exchanged into Buffer B.
In data set [10] the target is Sa GlnR(1-87), His-tag removed (crystallography) (S. aureus) (UniProt Q53687). The data set is described as follows: crystal structure; GlnR(1-87) with a 21-mer operator DNA (protein:DNA 1:1.5); GlnR dimer on the DNA.
In a further data set the target is T1, Pp GS (Paenibacillus polymyxa, UniProt A0A0F0G8G2).
T1 construct: gene glnA2; full-length, synthetic gene in pET15b, N-terminal His-tag (removed by thrombin for crystallography), E. coli C41(DE3)
T1 sequence (A0A0F0G8G2 1-442): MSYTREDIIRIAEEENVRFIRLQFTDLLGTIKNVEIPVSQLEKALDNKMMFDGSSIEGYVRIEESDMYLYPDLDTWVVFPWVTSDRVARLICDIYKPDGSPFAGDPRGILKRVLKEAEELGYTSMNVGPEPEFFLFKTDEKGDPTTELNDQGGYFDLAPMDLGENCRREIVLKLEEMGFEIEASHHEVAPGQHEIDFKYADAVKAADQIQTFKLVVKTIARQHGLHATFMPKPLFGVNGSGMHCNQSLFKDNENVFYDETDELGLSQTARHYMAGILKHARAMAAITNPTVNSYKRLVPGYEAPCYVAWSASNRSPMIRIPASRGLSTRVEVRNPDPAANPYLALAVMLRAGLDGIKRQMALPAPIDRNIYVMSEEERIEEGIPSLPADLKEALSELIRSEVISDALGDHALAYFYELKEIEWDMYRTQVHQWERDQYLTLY
The data set is described as follows: X-ray crystal structure […] Å. As to conditions: formed in situ from 5 mM ATP and 5 mM Met-Sox with 5 mM MgCl2; with Met-Sox-P. It is filed as binding.

Data set [11] deals with Paenibacillus polymyxa glutamine synthetase (P. polymyxa). Description: cryo-EM structure; GS (0.75-1.0 mg/mL) with 2.5 or 5 mM GlnR C-tail peptide, 30 min at rt; Buffer B (12.5 mM Tris pH 7.5, 20 mM glutamine, 5 mM MgCl2, 150 mM NaCl, 2.5% glycerol, 1 mM BME).
Data set [12] addresses fluoresceinated Pp GlnR C-tail peptide (P. polymyxa). Description: fluorescence polarisation; FBI-GS against the corresponding fluoresceinated GlnR C-tail; 25 mM Tris pH 7.5, 100 mM NaCl, 5 mM MgCl2, 20 mM glutamine; three technical repeats.
For data set [13], the target named is Paenibacillus polymyxa glutamine synthetase (P. polymyxa). Description: cryo-EM structure; apo GS without peptide, 0.9-1.0 mg/mL, exchanged into Buffer B.
Data set [14] addresses fluoresceinated Bs GlnR C-tail peptide (B. subtilis). The data set is described as follows: fluorescence polarisation; FBI-GS against the corresponding fluoresceinated GlnR C-tail; 25 mM Tris pH 7.5, 100 mM NaCl, 5 mM MgCl2, 20 mM glutamine; three technical repeats.
Data set [15] deals with the molecule itself. The data set is described as follows: cryo-EM structure; GS (0.75-1.0 mg/mL) with 2.5 or 5 mM GlnR C-tail peptide, 30 min at rt; Buffer B (12.5 mM Tris pH 7.5, 20 mM glutamine, 5 mM MgCl2, 150 mM NaCl, 2.5% glycerol, 1 mM BME).
Data set [16] deals with the molecule itself. The data set is described as follows: negative stain EM; apo Bs GS alone; 25 mM Tris pH 7.5, 200 mM NaCl, 5% glycerol, 1 mM MgCl2; 20-50 μg/mL; 2D class averages.
Data set [17] concerns the molecule itself. Description: crystal structure; GlnR(1-87) with a 21-mer operator DNA (protein:DNA 1:1.5); GlnR dimer on the DNA.
Data set [18] deals with B1. The data set is described as follows: cryo-EM structure; GS (0.75-1.0 mg/mL) with 2.5 or 5 mM GlnR C-tail peptide, 30 min at rt; Buffer B (12.5 mM Tris pH 7.5, 20 mM glutamine, 5 mM MgCl2, 150 mM NaCl, 2.5% glycerol, 1 mM BME). As to conditions: both partners purified.
A further data set addresses T2, Sa GlnR(1-87) (S. aureus, UniProt Q53687 1-87).
T2 chain: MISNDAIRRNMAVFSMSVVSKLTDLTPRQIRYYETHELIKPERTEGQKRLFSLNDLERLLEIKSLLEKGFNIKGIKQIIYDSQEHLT
The data set is described as follows: FP.

The target in data set [19] is B1. The data set is described as follows: negative stain EM; Bs GS mixed 1:1 with FL TnrA; 25 mM Tris pH 7.5, 200 mM NaCl, 5% glycerol, 1 mM MgCl2, 5 mM glutamine; 2D class averages. As to conditions: both partners purified.

With “Staphylococcus aureus glutamine synthetase (enzyme)”, the stoichiometry N in [1] and in data set [3] was 12 each time. The same molecule yielded a dissociation constant (Kd) in data set [2] of 7.2 µM.

In data set [4], “Paenibacillus polymyxa glutamine synthetase, His-tag removed (crystallography) (enzyme)” showed a stoichiometry N of 12. “Listeria monocytogenes glutamine synthetase, His-tag removed (crystallography) (enzyme)”: in data set [5], the stoichiometry N came to 12.

Consider “Staphylococcus aureus glutamine synthetase, His-tag removed (crystallography) (enzyme)”, for which the stoichiometry N in data set [6] was 12.

Take “Listeria monocytogenes glutamine synthetase (enzyme)”: the results for the stoichiometry N in data set [7] and in data set [9] were 14 and 12, respectively. Besides, the Kd in [8] worked out at 27.2 µM.

In data set [10], “Sa GlnR(1-87), His-tag removed (crystallography) (from UniProt Q53687 1-87) (domain or fragment)” registered a stoichiometry N of 2. Consider `Nc1ncnc2c1ncn2[C@@H]1O[C@H](COP(=O)(O)OP(=O)(O)O)[C@@H](O)[C@H]1O` [ADP], for which the “X-ray crystal structure 1.98 Å” value on Pp GS was “densities for Met-Sox-P and ADP were clearly observed in each enzyme”. In the case of “Paenibacillus polymyxa glutamine synthetase (enzyme)”, the stoichiometry N in [11] is 14 and 12; in data set [13], 12 and 14. Also, the dissociation constant (Kd) in data set [12] was 18.7 µM. For the molecule B1, the Kd in data set [14] amounted to 4.2 µM. For the same molecule, the “stoichiometry N” value was 14 in data set [15] and 12 in [16].

B2: Lm GlnR(1-87), His-tag removed (crystallography) (domain or fragment, L. monocytogenes, UniProt L8DSZ4 1-87, looked up)
chain: MSEKEIRRSMPLFPIGPVMKLTDLTARQIRYYEDQGLIHPARNQGNHRLYSLQDIDVLLEIKDYLNDGLNIAGIKKMYQMQQKESKE
notes: GlnR of L. monocytogenes (122 residues), residues 1-87; Dimer on the 21 bp operator DNA, generated by crystallographic symmetry; also called Lm GlnR-DNA complex; source: E. coli C41(DE3), purified (cobalt NTA, thrombin digestion, Ni-NTA); not shown: His-tag, N-terminal, cleaved
As for B2, in data set [17], the “stoichiometry N” value turned out to be 2.

B3: Bs GlnR C-tail peptide (peptide)
peptide: MQAGRFQRGNTFRQGDMSRFFH
notes: C-tail residues of GlnR of B. subtilis; also called Bs GlnR peptide; source: synthetic peptide, bought: Genscript
Take B3: the binding result in data set [18] was “binds”.

B4: fluoresceinated Sa GlnR C-tail peptide (peptide)
peptide: fluorescein-KPIGETLPINRGDLSRFIK
On to B4, for which the Kd with Sa GlnR(1-87) was 56 µM.

B5: Bacillus subtilis TnrA, full length (natural protein, B. subtilis, UniProt Q45666 1-110, looked up)
chain: MTTEDHSYKDKKVISIGIVSELTGLSVRQIRYYEERKLIYPQRSSRGTRKYSFADVERLMDIANKREDGVQTAEILKDMRKKEQMLKNDPQVRKKMLEGQLNAHFRYKNR
notes: TnrA transcription regulator (MerR-like) of B. subtilis; Its production is not described here; also called FL TnrA; Bs TnrA
Regarding B5, the binding result in data set [19] is given as “binds”.

The term stoichiometry N denotes the number of molecules, sites or subunits per partner or assembly. As usually defined, the Kd is the concentration at which binding is half-saturated. Read a low Kd as higher affinity.
